Assay results from US20240309360A1 (GOVERNING COUNCIL OF THE UNIVERSITY OF TORONTO, published 2024).
Each block holds one binder with its values, some of them ahead of it.

Columns and labels:
Assay in all cases: BioID2 proximity labelling, HEK293 cells
[1] = molecular target: T1, SUZ12 tagged with BirA-FLAG (human; Aquifex aeolicus, UniProt Q15022 1-739)
T1 construct: not shown: BioID2 biotin ligase (BirA from Aquifex aeolicus) tag

[2] = molecular target: T2, SRF (Serum Response Factor) tagged with BirA-FLAG (human; Aquifex aeolicus, UniProt P11831 1-508)
T2 construct: not shown: BioID2 biotin ligase (BirA from Aquifex aeolicus) tag
T2 sequence (looked up): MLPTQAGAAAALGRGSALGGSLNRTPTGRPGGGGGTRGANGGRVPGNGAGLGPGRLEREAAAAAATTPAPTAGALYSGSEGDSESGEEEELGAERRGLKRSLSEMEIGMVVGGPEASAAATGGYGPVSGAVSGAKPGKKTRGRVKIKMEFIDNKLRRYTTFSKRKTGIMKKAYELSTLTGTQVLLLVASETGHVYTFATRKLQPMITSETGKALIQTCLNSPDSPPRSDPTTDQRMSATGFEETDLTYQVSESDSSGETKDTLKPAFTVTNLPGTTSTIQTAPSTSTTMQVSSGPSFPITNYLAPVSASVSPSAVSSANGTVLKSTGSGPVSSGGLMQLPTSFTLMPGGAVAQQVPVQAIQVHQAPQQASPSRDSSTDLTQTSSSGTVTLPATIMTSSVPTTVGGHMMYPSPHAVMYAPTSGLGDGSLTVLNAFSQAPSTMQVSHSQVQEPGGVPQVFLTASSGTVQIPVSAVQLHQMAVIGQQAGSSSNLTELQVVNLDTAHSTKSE

CBP = molecular target: T3, CBP (human, UniProt Q92793 2-2442)
T3 construct: Endogenous prey identified by mass spectrometry; also called CBP/p300 (with p300)
T3 sequence (Q92793 2-2442 limits assumed): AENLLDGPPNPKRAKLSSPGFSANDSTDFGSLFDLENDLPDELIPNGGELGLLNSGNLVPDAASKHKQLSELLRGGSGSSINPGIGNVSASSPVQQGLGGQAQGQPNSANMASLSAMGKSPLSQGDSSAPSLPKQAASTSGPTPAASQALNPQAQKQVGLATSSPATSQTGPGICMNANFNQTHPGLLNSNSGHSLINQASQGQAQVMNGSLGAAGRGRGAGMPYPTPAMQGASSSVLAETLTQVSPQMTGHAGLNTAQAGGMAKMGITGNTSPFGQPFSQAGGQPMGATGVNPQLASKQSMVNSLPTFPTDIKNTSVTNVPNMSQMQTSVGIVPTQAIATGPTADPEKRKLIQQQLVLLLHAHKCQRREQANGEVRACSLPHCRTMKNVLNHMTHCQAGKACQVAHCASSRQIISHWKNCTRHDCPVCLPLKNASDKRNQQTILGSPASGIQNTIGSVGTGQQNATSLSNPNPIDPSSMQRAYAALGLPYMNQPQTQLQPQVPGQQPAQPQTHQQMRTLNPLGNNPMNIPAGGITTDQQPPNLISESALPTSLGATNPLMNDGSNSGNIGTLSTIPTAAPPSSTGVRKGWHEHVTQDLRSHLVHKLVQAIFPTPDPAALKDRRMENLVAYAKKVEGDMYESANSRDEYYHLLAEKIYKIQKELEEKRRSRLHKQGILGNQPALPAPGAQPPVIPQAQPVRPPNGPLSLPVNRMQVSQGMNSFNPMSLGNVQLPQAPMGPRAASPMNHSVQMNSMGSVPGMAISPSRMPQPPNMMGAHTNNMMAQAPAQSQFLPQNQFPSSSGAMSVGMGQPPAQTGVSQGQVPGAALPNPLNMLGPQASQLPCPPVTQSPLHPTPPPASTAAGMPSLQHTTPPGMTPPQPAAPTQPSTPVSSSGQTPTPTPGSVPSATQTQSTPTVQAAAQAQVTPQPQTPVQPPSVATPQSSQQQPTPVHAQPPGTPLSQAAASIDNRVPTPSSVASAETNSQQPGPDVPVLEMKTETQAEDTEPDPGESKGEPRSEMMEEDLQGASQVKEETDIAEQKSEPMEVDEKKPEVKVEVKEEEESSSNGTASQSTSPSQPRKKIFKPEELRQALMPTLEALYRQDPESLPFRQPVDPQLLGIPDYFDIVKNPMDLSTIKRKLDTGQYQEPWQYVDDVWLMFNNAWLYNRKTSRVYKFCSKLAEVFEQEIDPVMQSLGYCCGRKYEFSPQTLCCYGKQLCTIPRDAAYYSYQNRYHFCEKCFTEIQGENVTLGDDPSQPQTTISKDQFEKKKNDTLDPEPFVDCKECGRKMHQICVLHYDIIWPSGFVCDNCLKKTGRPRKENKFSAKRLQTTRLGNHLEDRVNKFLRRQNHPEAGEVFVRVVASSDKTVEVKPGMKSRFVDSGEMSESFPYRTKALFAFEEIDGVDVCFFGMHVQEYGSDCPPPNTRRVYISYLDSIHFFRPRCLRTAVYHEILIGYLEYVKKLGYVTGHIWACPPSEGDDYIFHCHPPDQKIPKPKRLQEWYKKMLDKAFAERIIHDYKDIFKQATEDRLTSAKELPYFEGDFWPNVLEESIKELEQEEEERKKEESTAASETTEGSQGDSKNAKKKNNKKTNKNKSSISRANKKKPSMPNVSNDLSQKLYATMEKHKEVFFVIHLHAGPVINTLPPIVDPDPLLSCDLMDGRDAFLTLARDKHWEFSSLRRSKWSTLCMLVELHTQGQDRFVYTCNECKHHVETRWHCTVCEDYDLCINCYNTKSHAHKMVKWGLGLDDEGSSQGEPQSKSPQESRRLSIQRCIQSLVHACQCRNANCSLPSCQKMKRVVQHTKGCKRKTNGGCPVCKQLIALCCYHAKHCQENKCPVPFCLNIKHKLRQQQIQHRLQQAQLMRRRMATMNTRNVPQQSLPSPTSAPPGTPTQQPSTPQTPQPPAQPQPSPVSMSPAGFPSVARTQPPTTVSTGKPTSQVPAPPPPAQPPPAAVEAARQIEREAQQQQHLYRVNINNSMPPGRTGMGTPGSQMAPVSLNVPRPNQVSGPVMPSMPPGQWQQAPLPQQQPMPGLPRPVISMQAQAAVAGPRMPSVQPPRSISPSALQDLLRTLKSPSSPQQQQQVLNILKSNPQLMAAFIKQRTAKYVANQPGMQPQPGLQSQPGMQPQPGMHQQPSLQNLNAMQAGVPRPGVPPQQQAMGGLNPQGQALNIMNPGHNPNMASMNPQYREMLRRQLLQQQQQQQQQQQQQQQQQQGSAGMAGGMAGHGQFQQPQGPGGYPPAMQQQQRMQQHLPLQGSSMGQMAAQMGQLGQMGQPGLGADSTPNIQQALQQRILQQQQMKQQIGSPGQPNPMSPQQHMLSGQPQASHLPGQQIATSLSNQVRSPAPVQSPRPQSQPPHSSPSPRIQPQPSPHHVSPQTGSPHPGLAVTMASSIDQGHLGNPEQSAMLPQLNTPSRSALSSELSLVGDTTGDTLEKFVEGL

p300 = molecular target: T4, p300 (human, UniProt Q09472 2-2414)
T4 construct: Endogenous prey identified by mass spectrometry; also called EP300; CBP/p300 (with CBP)

T1 sequence (Q15022 whole entry): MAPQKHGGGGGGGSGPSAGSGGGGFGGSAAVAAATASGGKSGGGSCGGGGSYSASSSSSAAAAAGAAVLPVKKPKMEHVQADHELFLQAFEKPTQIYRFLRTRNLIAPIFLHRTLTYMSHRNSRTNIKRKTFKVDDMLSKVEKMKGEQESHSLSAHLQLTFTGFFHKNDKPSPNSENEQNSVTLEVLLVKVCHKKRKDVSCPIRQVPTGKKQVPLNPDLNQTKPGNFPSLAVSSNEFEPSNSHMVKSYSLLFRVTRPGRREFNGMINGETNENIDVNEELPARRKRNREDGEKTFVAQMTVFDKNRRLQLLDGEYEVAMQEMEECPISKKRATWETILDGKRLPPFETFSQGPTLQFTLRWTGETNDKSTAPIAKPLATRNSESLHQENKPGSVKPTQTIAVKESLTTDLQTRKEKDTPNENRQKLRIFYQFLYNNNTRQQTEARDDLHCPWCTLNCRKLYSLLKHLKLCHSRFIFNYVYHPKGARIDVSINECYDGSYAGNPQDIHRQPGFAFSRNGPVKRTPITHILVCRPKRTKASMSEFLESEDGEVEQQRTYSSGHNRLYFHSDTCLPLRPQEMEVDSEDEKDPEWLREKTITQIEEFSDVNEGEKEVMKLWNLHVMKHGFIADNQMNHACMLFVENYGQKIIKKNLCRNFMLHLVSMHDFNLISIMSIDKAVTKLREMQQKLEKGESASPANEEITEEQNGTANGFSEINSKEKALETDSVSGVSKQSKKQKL

binding result [1]: binds
B1: MTF2/PCL2 (other, human, UniProt Q9Y483 1-593, looked up)
chain: MRDSTGAGNSLVHKRSPLRRNQKTPTSLTKLSLQDGHKAKKPACKFEEGQDVLARWSDGLFYLGTIKKINILKQSCFIIFEDSSKSWVLWKDIQTGATGSGEMVCTICQEEYSEAPNEMVICDKCGQGYHQLCHTPHIDSSVIDSDEKWLCRQCVFATTTKRGGALKKGPNAKALQVMKQTLPYSVADLEWDAGHKTNVQQCYCYCGGPGDWYLKMLQCCKCKQWFHEACVQCLQKPMLFGDRFYTFICSVCSSGPEYLKRLPLQWVDIAHLCLYNLSVIHKKKYFDSELELMTYINENWDRLHPGELADTPKSERYEHVLEALNDYKTMFMSGKEIKKKKHLFGLRIRVPPVPPNVAFKAEKEPEGTSHEFKIKGRKASKPISDSREVSNGIEKKGKKKSVGRPPGPYTRKMIQKTAEPLLDKESISENPTLDLPCSIGRTEGTAHSSNTSDVDFTGASSAKETTSSSISRHYGLSDSRKRTRTGRSWPAAIPHLRRRRGRLPRRALQTQNSEIVKDDEGKEDYQFDELNTEILNNLADQELQLNHLKNSITSYFGAAGRIACGEKYRVLARRVTLDGKVQYLVEWEGATAS

binding result [2]: binds
B2: ELK1 (other, human, UniProt P19419 1-428, looked up)
chain: MDPSVTLWQFLLQLLREQGNGHIISWTSRDGGEFKLVDAEEVARLWGLRKNKTNMNYDKLSRALRYYYDKNIIRKVSGQKFVYKFVSYPEVAGCSTEDCPPQPEVSVTSTMPNVAPAAIHAAPGDTVSGKPGTPKGAGMAGPGGLARSSRNEYMRSGLYSTFTIQSLQPQPPPHPRPAVVLPSAAPAGAAAPPSGSRSTSPSPLEACLEAEEAGLPLQVILTPPEAPNLKSEELNVEPGLGRALPPEVKVEGPKEELEVAGERGFVPETTKAEPEVPPQEGVPARLPAVVMDTAGQAGGHAASSPEISQPQKGRKPRDLELPLSPSLLGGPGPERTPGSGSGSGLQAPGPALTPSLLPTHTLTPVLLTPSSLPPSIHFWSTLSPIAPRSPAKLSFQFPSSGSAQVHIPSISVDGLSTPVVLSPGPQKP

binding result (CBP): binds
binding result (p300): binds
B3: SOX7 fused to BioID2 (BirA from Aquifex aeolicus) and FLAG (other, human;Aquifex aeolicus, UniProt Q9BT81 1-388, looked up)
chain: MASLLGAYPWPEGLECPALDAELSDGQSPPAVPRPPGDKGSESRIRRPMNAFMVWAKDERKRLAVQNPDLHNAELSKMLGKSWKALTLSQKRPYVDEAERLRLQHMQDYPNYKYRPRRKKQAKRLCKRVDPGFLLSSLSRDQNALPEKRSGSRGALGEKEDRGEYSPGTALPSLRGCYHEGPAGGGGGGTPSSVDTYPYGLPTPPEMSPLDVLEPEQTFFSSPCQEEHGHPRRIPHLPGHPYSPEYAPSPLHCSHPLGSLALGQSPGVSMMSPVPGCPPSPAYYSPATYHPLHSNLQAHLGQLSPPPEHPGFDALDQLSQVELLGDMDRNEFDQYLNTPGHPDSATGAMALSGHVPVSQVTPTGPTETSLISVLADATATYYNSYSVS
notes: Tetracycline-inducible bait in HEK293 Flp-In T-REx cells; not shown: BioID2 biotin ligase (BirA from Aquifex aeolicus), C-terminal tag
